Paper PMC3776355

Target: Ero1-α(WT), recombinant (human) (UniProt Q96HE7)
Test: SPR

Sequence of UniProt Q96HE7 (Q96HE7 24-468): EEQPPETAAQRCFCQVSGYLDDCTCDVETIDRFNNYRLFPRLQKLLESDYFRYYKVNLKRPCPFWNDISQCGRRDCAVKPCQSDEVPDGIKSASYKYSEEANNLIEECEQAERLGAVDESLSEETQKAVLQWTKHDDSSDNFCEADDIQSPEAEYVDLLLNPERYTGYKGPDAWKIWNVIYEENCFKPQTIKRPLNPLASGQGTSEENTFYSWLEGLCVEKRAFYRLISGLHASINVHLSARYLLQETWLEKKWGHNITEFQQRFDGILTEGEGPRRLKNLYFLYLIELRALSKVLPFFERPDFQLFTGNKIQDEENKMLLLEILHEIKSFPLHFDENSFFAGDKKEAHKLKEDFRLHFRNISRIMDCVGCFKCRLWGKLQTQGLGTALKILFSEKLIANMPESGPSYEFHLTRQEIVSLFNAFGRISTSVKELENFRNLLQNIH

Substance: PDI, recombinant (wild type) (from UniProt P07237 18-508) (enzyme)
- Kd: 1700 nM
